Laboratory results as given in the supplement of paper PMC7877785.
± gives the uncertainty stated by the source.

Assay: self-splicing fitness, log relative to wild type (ln ratio); higher = more splicing; Tetrahymena group I intron in knt gene, E. coli kanamycin selection, DiMSum; sequences stand for … in CUCUCU…GGAGGGAAAAGUUAUCAGGCAUGCACCUGGUAGCUAGUCUUUAAACCAAUAGAUUGCAUCGGUUUAAAAGGCAAGACCGUCAAAUUGCGGGAAAGGGGUCAACAGCCGUUCAGUACCAAGUCUCAGGGGAAACUUUGAGAUGGCCUUGCAAAGGGUAUGGUAAUAAGCUGACGGACAUGGUCCUAACCACGCAGCCAAGUCCUAAGUCAACAGAUCUUCUGUUGAUAUGGAUGCAGUUCACAGACUAAAUGUCGGUCGGGGAAGAUGUAUUCUUCUCAUAAGAUAUAGUCGGACCUCUCCUUAAUGGGAGCUAGCGGAUGAAGUGAUGCAACACUGGAGCCGCUGGGAACUAAUUUGUAUGCGAAAGUAUAUUGAUUAGUUUUGGAGUACUCGUGGUCG
How it was run: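 DiMSum derived fitness as the error-weighted combination of fold changes across replicates, kanamycin versus no kanamycin, normalised to wild type. E. coli BL21(DE3) held the library, which randomised all eight P1ex-region intron nucleotides within the knt kanamycin-resistance gene on pET-22b(+). Six replicate transformations grew overnight at 37°C or 30°C on LB agar with or without 25 μg/mL kanamycin, also containing 100 μg/mL carbenicillin, 50 μM IPTG and 0.2% rhamnose, and pooled colonies were amplicon-sequenced on an Illumina HiSeq 2500.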

Sequence	self-splicing fitness (ln) (30 °C)	self-splicing fitness (ln) (37 °C)
AUCGAGCAAUAUUACGGGCC	-1.92 ± 0.27	-2.19 ± 0.37
AUCGAGCAAUAUUACGGGGG	-3.4 ± 0.25	-2.67 ± 0.26
AUCGAGCAAUAUUACGGUAA	-2.41 ± 0.29	-3.15 ± 0.35
AUCGAGCAAUAUUACGGUAG		-1.93 ± 0.27
AUCGAGCAAUAUUACGGUCA	-2.98 ± 0.18	-2.07 ± 0.18
AUCGAGCAAUAUUACGGUUA	-3.3 ± 0.23	-1.04 ± 0.13
AUCGAGCAAUAUUACGGUUC	-2.93 ± 0.24	
AUCGAGCAAUAUUACGUAAC	-3.15 ± 0.43	
AUCGAGCAAUAUUACGUACA	-3.78 ± 0.33	-1.72 ± 0.16
AUCGAGCAAUAUUACGUCGC	-2.55 ± 0.28	-2.21 ± 0.29
AUCGAGCAAUAUUACGUCUA	-3.26 ± 0.32	-0.994 ± 0.13
AUCGAGCAAUAUUACGUGAU		-1.87 ± 0.43
AUCGAGCAAUAUUACGUGCG	-4 ± 0.29	-1.73 ± 0.13
AUCUAGCAAUAUUACGAAGU	-0.522 ± 0.24	-0.543 ± 0.31
AUCUAGCAAUAUUACGACCG	-0.961 ± 0.39	-0.253 ± 0.33
AUCUAGCAAUAUUACGCAUA	-2.4 ± 0.18	-1.69 ± 0.15
AUCUAGCAAUAUUACGCAUU	-1.48 ± 0.1	-0.414 ± 0.1
AUCUAGCAAUAUUACGCCUC	-1.62 ± 0.19	-1.33 ± 0.34
AUCUAGCAAUAUUACGCUCU	-0.469 ± 0.11	-0.244 ± 0.12
AUCUAGCAAUAUUACGGACA	-0.495 ± 0.14	0.224 ± 0.13
AUCUAGCAAUAUUACGGAGA	-2.16 ± 0.2	-1.32 ± 0.16
AUCUAGCAAUAUUACGGAUU	-4.46 ± 0.32	-2.38 ± 0.23
AUCUAGCAAUAUUACGGCGC	-0.932 ± 0.11	-0.0721 ± 0.14
AUCUAGCAAUAUUACGGCUG	-1.21 ± 0.14	0.594 ± 0.18
AUCUAGCAAUAUUACGGUCG	-2.96 ± 0.22	0.125 ± 0.18
AUCUAGCAAUAUUACGGUGG	-4.43 ± 0.46	-2.53 ± 0.19

Sequence	self-splicing fitness (ln) (30 °C)	self-splicing fitness (ln) (37 °C)
AUCUAGCAAUAUUACGGUGU	-2.17 ± 0.076	-0.462 ± 0.081
AUCUAGCAAUAUUACGUAAG	-2.37 ± 0.12	-1.16 ± 0.15
AUCUAGCAAUAUUACGUAGU	-1.83 ± 0.096	-0.758 ± 0.11
AUCUAGCAAUAUUACGUCCG	-1.67 ± 0.2	-1.42 ± 0.28
AUCUAGCAAUAUUACGUCGG	-3.23 ± 0.2	-2.72 ± 0.27
AUCUAGCAAUAUUACGUCUG	-1.72 ± 0.14	-0.625 ± 0.14
AUGAAGCAAUAUUACGAAAA	-2.58 ± 0.17	-0.92 ± 0.15
AUGAAGCAAUAUUACGAAUA	-1.17 ± 0.11	-0.537 ± 0.17
AUGAAGCAAUAUUACGACUC	0.055 ± 0.11	0.123 ± 0.13
AUGAAGCAAUAUUACGACUG	-0.375 ± 0.097	-0.617 ± 0.11
AUGAAGCAAUAUUACGAUGG	-3.18 ± 0.18	-1.92 ± 0.16
AUGAAGCAAUAUUACGCAAU	-1.03 ± 0.11	-0.743 ± 0.12
AUGAAGCAAUAUUACGCCCA	0.226 ± 0.22	0.0745 ± 0.25
AUGAAGCAAUAUUACGCCUC	-0.0224 ± 0.2	-1.19 ± 0.33
AUGAAGCAAUAUUACGCGGC	-2.46 ± 0.31	-2.26 ± 0.29
AUGAAGCAAUAUUACGCUAU	-1.47 ± 0.091	-1.21 ± 0.12
AUGAAGCAAUAUUACGGACG	-0.554 ± 0.066	0.536 ± 0.091
AUGAAGCAAUAUUACGGAGC	-3.69 ± 0.39	-1.72 ± 0.2
AUGAAGCAAUAUUACGGAUA	-0.747 ± 0.088	-0.113 ± 0.11
AUGAAGCAAUAUUACGGCGU	0.47 ± 0.064	0.205 ± 0.078
AUGAAGCAAUAUUACGGCUU	-4.22 ± 0.24	-3.03 ± 0.21
AUGAAGCAAUAUUACGGGCC	-1.73 ± 0.29	-0.73 ± 0.22
AUGAAGCAAUAUUACGGUAC	-1.71 ± 0.14	-0.139 ± 0.13
AUGAAGCAAUAUUACGGUGA	-0.607 ± 0.069	0.195 ± 0.096
AUGAAGCAAUAUUACGGUGU	-1.33 ± 0.062	-0.601 ± 0.078
AUGAAGCAAUAUUACGGUUC	-1.29 ± 0.099	-1.8 ± 0.15

Sequence	self-splicing fitness (ln) (30 °C)	self-splicing fitness (ln) (37 °C)
AUGAAGCAAUAUUACGUCCA	-0.138 ± 0.075	0.611 ± 0.11
AUGAAGCAAUAUUACGUGGC	-3.92 ± 0.25	-2.56 ± 0.31
AUGAAGCAAUAUUACGUGUC	-2.97 ± 0.28	-2.26 ± 0.34
AUGAAGCAAUAUUACGUUUA	-0.538 ± 0.061	-0.537 ± 0.079
AUGCAGCAAUAUUACGAAGC	-3.21 ± 0.19	-0.72 ± 0.21
AUGCAGCAAUAUUACGACCC	-0.995 ± 0.2	-0.303 ± 0.31
AUGCAGCAAUAUUACGACUC	-0.57 ± 0.11	0.501 ± 0.11
AUGCAGCAAUAUUACGACUG	-3.44 ± 0.23	-2.8 ± 0.31
AUGCAGCAAUAUUACGAGAA	-3.47 ± 0.32	-2.64 ± 0.34
AUGCAGCAAUAUUACGCCAC	-2.31 ± 0.47	-2.1 ± 0.36
AUGCAGCAAUAUUACGCGCA	-1.91 ± 0.14	-1.39 ± 0.099
AUGCAGCAAUAUUACGCGCU	-1.37 ± 0.097	-1.22 ± 0.12
AUGCAGCAAUAUUACGCUCA	-0.858 ± 0.061	-0.215 ± 0.075
AUGCAGCAAUAUUACGCUCG	-1.89 ± 0.11	-0.774 ± 0.13
AUGCAGCAAUAUUACGGAAC		-2.76 ± 0.36
AUGCAGCAAUAUUACGGAAG	-3.07 ± 0.16	-2.01 ± 0.2
AUGCAGCAAUAUUACGGAGU	-1.78 ± 0.093	-1.44 ± 0.11
AUGCAGCAAUAUUACGGCCC	-0.0496 ± 0.14	0.777 ± 0.19
AUGCAGCAAUAUUACGGCCG	-1.62 ± 0.27	-1.05 ± 0.3
AUGCAGCAAUAUUACGGCGU	-4.06 ± 0.24	-1.76 ± 0.2
AUGCAGCAAUAUUACGGCUG	-2.78 ± 0.15	-1.68 ± 0.23
AUGCAGCAAUAUUACGGGUA	-1.56 ± 0.13	-1.12 ± 0.14
AUGCAGCAAUAUUACGUAAC	-2.78 ± 0.2	-0.366 ± 0.15
AUGCAGCAAUAUUACGUCAG	-2.17 ± 0.092	-1.12 ± 0.11
